Measurements: the supplement of paper PMC9112550, “Optimization of the antimicrobial peptide Bac7 by deep mutational scanning” (BMC Biology, 2022)

Test system: Escherichia coli TOP10
Experiment: shrunken log2 fold change of peptide-encoding DNA abundance (4.5 h post-induction vs induction); higher = less antimicrobial activity (less host growth inhibition)
Settings: time post-induction: 4.5 h; library: site-saturation at positions 5, 18, 19, 20
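Note: peptides expressed intracellularly from a pBAD plasmid library in pooled LB shake-flask culture, induced with 0.3% L-arabinose, DNA abundance read by NGS, three biological replicates, DESeq2 with apeglm shrinkage.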

Sequence	shrunken log2 fold change
RRIRNRPPRLPRPRPRPGWWPRP	-0.0419
RRIRIRPPRLPRPRPRPRWYPRP	-0.452
RRIRDRPPRLPRPRPRPKWTPRP	0.0796
RRIRERPPRLPRPRPRPWTMPRP	0.0606
RRIRTRPPRLPRPRPRPAVHPRP	-0.0614
RRIRKRPPRLPRPRPRPETEPRP	0.0991
RRIRPRPPRLPRPRPRPMHKPRP	0.0775
RRIRSRPPRLPRPRPRPAACPRP	0.222
RRIRPRPPRLPRPRPRPVQGPRP	-0.0469
RRIRNRPPRLPRPRPRPKSAPRP	0.265
RRIRERPPRLPRPRPRPYAVPRP	-0.441
RRIRYRPPRLPRPRPRPTLDPRP	-0.628
RRIRTRPPRLPRPRPRPRFAPRP	0.37
RRIRKRPPRLPRPRPRPHMCPRP	-0.066
RRIRERPPRLPRPRPRPKKCPRP	-0.0779
RRIRRRPPRLPRPRPRPCPKPRP	-0.0745
RRIRLRPPRLPRPRPRPAPNPRP	0.555
RRIRNRPPRLPRPRPRPNEGPRP	0.000589
RRIRQRPPRLPRPRPRPNWCPRP	-0.0237
RRIRPRPPRLPRPRPRPDTHPRP	-0.119
RRIRHRPPRLPRPRPRPAYIPRP	-0.00844
RRIRYRPPRLPRPRPRPLNHPRP	-0.796

Sequence	shrunken log2 fold change
RRIRPRPPRLPRPRPRPRHFPRP	0.168
RRIRARPPRLPRPRPRPTNSPRP	0.165
RRIRIRPPRLPRPRPRPTLYPRP	-0.348
RRIRNRPPRLPRPRPRPYYWPRP	-0.367
RRIRKRPPRLPRPRPRPYEHPRP	0.049
RRIRCRPPRLPRPRPRPKTVPRP	-0.109
RRIRYRPPRLPRPRPRPLHAPRP	0.000596
RRIRMRPPRLPRPRPRPTVTPRP	0.307
RRIRLRPPRLPRPRPRPHGPPRP	0.101
RRIRYRPPRLPRPRPRPNKIPRP	-0.995
RRIRTRPPRLPRPRPRPTSFPRP	0.0555
RRIRYRPPRLPRPRPRPSYSPRP	-0.438
RRIRLRPPRLPRPRPRPPYLPRP	-0.0206
RRIRQRPPRLPRPRPRPISAPRP	-0.0212
RRIRLRPPRLPRPRPRPDHCPRP	-0.0562
RRIRNRPPRLPRPRPRPTWQPRP	0.0252
RRIRTRPPRLPRPRPRPFTPPRP	-0.0472
RRIRNRPPRLPRPRPRPHYKPRP	-0.333
RRIRHRPPRLPRPRPRPMAAPRP	0.53
RRIRWRPPRLPRPRPRPCVHPRP	0.0249
RRIRRRPPRLPRPRPRPFRVPRP	0.12
RRIRHRPPRLPRPRPRPSGGPRP	-0.0256

Sequence	shrunken log2 fold change
RRIRWRPPRLPRPRPRPHIQPRP	-0.749
RRIRMRPPRLPRPRPRPCALPRP	0.738
RRIRTRPPRLPRPRPRPSNLPRP	-0.97
RRIRIRPPRLPRPRPRPHSCPRP	-0.0433
RRIRGRPPRLPRPRPRPDWEPRP	0.166
RRIRYRPPRLPRPRPRPKNYPRP	-1.38
RRIRQRPPRLPRPRPRPLYTPRP	-0.671
RRIRPRPPRLPRPRPRPAPNPRP	1.16
RRIRQRPPRLPRPRPRPLHYPRP	-0.269
RRIRHRPPRLPRPRPRPKGCPRP	0.031
RRIRSRPPRLPRPRPRPDYCPRP	-0.284
RRIRVRPPRLPRPRPRPYGAPRP	0.162
RRIRIRPPRLPRPRPRPVPRPRP	0.0562
RRIRPRPPRLPRPRPRPAITPRP	-0.361
RRIRGRPPRLPRPRPRPIHKPRP	-0.16
RRIRSRPPRLPRPRPRPSGPPRP	0.0577
RRIRIRPPRLPRPRPRPRTDPRP	-0.158
RRIRPRPPRLPRPRPRPAPVPRP	0.409
RRIRPRPPRLPRPRPRPNAAPRP	0.237
RRIRKRPPRLPRPRPRPLNRPRP	-0.0492
RRIRGRPPRLPRPRPRPSPLPRP	0.539
RRIRHRPPRLPRPRPRPTDMPRP	0.151

Sequence	shrunken log2 fold change
RRIRARPPRLPRPRPRPDCFPRP	0.715
RRIRDRPPRLPRPRPRPQVHPRP	-0.0385
RRIRLRPPRLPRPRPRPWSTPRP	-0.137
RRIRCRPPRLPRPRPRPKHEPRP	-0.000422
RRIRDRPPRLPRPRPRPHDMPRP	-0.0819
RRIRIRPPRLPRPRPRPAMGPRP	1.17
RRIRKRPPRLPRPRPRPRINPRP	0.0244
RRIRVRPPRLPRPRPRPLPHPRP	0.0915
RRIRHRPPRLPRPRPRPFVHPRP	-0.836
RRIRLRPPRLPRPRPRPLQLPRP	0.267
RRIRNRPPRLPRPRPRPHGCPRP	-0.0193
RRIRNRPPRLPRPRPRPYGVPRP	-0.00804
RRIRPRPPRLPRPRPRPPNRPRP	0.29
RRIRMRPPRLPRPRPRPMYQPRP	-0.0563
RRIRMRPPRLPRPRPRPWRNPRP	-0.00207
RRIRWRPPRLPRPRPRPQTGPRP	-0.000887
RRIRYRPPRLPRPRPRPHTSPRP	-1.04
RRIRARPPRLPRPRPRPVFEPRP	0.41
RRIRQRPPRLPRPRPRPVPSPRP	-0.0282
RRIRPRPPRLPRPRPRPEGLPRP	0.491
RRIRIRPPRLPRPRPRPGHHPRP	-0.309
RRIRFRPPRLPRPRPRPAAGPRP	0.333

Sequence	shrunken log2 fold change
RRIRPRPPRLPRPRPRPPVPPRP	0.564
RRIRKRPPRLPRPRPRPLEWPRP	-0.0047
RRIRPRPPRLPRPRPRPHIDPRP	-0.215
RRIRERPPRLPRPRPRPLWQPRP	0.113
RRIRLRPPRLPRPRPRPPDDPRP	0.397
RRIRIRPPRLPRPRPRPAWFPRP	-0.00823
RRIRPRPPRLPRPRPRPGHCPRP	0.0859
RRIRDRPPRLPRPRPRPPTYPRP	-0.383
RRIRHRPPRLPRPRPRPAYWPRP	2.61
RRIRGRPPRLPRPRPRPVMCPRP	0.522
RRIRFRPPRLPRPRPRPEDYPRP	0.0145
RRIRLRPPRLPRPRPRPTNMPRP	-0.537
RRIRDRPPRLPRPRPRPMCHPRP	0.216
RRIRDRPPRLPRPRPRPDTNPRP	-0.0518
RRIRDRPPRLPRPRPRPCWMPRP	-0.0868
RRIRCRPPRLPRPRPRPRNPPRP	0.176
RRIRRRPPRLPRPRPRPGMYPRP	-0.0527
RRIRFRPPRLPRPRPRPHYDPRP	-0.397
RRIRSRPPRLPRPRPRPMPRPRP	0.346
RRIRVRPPRLPRPRPRPFCQPRP	-0.203
RRIRHRPPRLPRPRPRPLVTPRP	1.93
